Measured values as given in article PMC8978092 (Cell, 2022).

What was measured:
crystal structure = target: the molecule itself; experiment: crystal structure
cryo-EM structure = target: the molecule itself; experiment: cryo-EM structure

Protein	stoichiometry N (crystal structure)	stoichiometry N (cryo-EM structure)
Enterococcus pore-forming toxin 4 (Epx4), residues 32-335, C-terminal His6 (natural protein) SEDNIIGTTTQEIDEHGNVKTIITVKNQQIESYTSTDSGTAKNRSTLTVNANFLNDKYSNELTTILSLNGFIPSGRKFIFPKNNTLKGEMLWPQRYSTAVYNIPLDKSVKITNSTPDNTIRSKEVSNSITYGIGGGIKMEGKQPGANLDANAAITKTISYQQPDYETAKTTSTVTGVNWNTNFTETRDGYTRNSWNPVYGNQMFMYGRYTSNIRNNFTPDYQLSSLITSGFSPSYGLVLRAPKDVKKSRIKVVFARRSETYQQNWDGLNWWGRNFYDTKNPDSLSKVTLTFELDWQNHRVTFIELEHHHHHH	8	–
Enterococcus pore-forming toxin 1 (Epx1), residues 24-345, C-terminal His6 (natural protein) DVQVFADNPVLGTEVTFEKDENGRIVKIISKNQYRITIYNSVDAGDTPNDASVSLDVDFIDDKNSGEMGAVASINTFIPSGLRYVEGYKYKGVTNPIYKNLSAGMLWPKKYRVEVVNIPIDQATKIITATPNNNIKEKQVSDTISYGFGGSVSADGKKPGGSIEANLAYTKTTTYDQPDYETSQIKKTTKEAVWDTSFVETRDGYTPNSWNPVYGNQMFMRGRYSNVSPIDNIKKGGEVSSLISGGFSPKMGVVLASPNGTKKSQFVVRVSRMSDMYIMRWSGTEWGGENEINQNVPKEYNALMYEDVKFEIDWEQRTVRTILEHHHHHH	–	8
